US20260015426A1 (23ANDME, published 2026)

T1: hu-M-IL1RAP construct, positions S21-T367 (extracellular domain of the membrane form of human IL1RAP) (human, UniProt Q9NPH3 21-367)
T1 construct: Biotinylated when captured on the Biacore chip
T1 sequence: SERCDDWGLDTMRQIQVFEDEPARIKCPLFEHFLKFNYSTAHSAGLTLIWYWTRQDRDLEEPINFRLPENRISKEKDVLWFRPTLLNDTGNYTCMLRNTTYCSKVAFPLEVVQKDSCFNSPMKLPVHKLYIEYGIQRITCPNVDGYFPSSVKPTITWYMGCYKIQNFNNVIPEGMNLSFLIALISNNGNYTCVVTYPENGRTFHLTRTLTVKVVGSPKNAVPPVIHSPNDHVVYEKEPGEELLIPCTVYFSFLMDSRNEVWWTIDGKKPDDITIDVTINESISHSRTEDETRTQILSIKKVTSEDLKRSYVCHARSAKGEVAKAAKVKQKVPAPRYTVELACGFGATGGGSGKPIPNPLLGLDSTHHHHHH

T2: mu-M-IL1RAP construct, positions S21-T367 (mouse, UniProt Q61730 21-367)
T2 construct: also called mo-M-IL1RAP; mouse-M-IL1RAP
T2 sequence: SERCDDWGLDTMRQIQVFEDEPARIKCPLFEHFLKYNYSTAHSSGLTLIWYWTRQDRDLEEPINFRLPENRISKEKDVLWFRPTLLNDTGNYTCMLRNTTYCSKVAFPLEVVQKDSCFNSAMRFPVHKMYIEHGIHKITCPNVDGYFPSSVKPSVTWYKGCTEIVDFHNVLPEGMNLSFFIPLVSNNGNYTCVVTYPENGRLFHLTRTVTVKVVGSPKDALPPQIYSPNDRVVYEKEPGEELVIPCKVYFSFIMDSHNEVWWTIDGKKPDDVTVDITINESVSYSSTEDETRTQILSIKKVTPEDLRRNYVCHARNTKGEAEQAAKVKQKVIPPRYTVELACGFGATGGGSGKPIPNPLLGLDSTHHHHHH

T3: hu-S-IL1RAP construct, positions S21-Q356 (soluble human IL1RAP) (human, UniProt Q9NPH3 21-350)
T3 sequence: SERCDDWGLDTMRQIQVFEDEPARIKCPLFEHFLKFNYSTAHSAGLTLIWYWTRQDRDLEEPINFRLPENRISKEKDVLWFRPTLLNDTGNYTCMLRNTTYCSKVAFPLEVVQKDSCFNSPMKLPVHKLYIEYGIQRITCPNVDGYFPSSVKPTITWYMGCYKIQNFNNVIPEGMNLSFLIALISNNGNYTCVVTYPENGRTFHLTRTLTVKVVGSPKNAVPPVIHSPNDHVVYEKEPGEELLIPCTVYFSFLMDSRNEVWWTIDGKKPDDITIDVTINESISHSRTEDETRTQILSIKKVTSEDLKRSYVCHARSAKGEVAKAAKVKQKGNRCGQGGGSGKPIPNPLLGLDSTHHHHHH

T4: cyno-M-IL1RAP construct, positions S21-T367 (cynomolgus monkey, UniProt P59822 21-367 (rhesus entry))
T4 construct: Biotinylated when captured on the Biacore chip; also called cy-M-IL1RAP
T4 sequence: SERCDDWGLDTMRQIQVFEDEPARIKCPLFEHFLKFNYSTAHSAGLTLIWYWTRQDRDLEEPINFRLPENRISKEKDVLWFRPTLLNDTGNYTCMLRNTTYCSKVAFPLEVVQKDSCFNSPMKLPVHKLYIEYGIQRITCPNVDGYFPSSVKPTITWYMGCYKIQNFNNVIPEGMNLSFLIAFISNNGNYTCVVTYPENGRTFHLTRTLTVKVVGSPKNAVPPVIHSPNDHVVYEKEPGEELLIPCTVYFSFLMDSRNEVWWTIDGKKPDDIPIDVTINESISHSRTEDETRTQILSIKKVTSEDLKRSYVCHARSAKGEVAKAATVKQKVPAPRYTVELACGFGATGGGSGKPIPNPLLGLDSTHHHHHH

T5: hu-M-IL1RAP-D1D2 construct, positions S21-P237 (human)
T5 chain: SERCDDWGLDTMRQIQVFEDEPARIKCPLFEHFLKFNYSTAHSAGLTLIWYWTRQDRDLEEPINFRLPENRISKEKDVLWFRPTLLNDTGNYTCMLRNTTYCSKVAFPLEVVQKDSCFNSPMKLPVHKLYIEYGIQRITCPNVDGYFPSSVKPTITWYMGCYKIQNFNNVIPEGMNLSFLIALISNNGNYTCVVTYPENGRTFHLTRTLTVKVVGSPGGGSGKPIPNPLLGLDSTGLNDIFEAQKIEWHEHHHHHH

T6: human IL1RAP (hu-IL1RAP) on human cells (human, UniProt Q9NPH3 21-570)
T6 sequence: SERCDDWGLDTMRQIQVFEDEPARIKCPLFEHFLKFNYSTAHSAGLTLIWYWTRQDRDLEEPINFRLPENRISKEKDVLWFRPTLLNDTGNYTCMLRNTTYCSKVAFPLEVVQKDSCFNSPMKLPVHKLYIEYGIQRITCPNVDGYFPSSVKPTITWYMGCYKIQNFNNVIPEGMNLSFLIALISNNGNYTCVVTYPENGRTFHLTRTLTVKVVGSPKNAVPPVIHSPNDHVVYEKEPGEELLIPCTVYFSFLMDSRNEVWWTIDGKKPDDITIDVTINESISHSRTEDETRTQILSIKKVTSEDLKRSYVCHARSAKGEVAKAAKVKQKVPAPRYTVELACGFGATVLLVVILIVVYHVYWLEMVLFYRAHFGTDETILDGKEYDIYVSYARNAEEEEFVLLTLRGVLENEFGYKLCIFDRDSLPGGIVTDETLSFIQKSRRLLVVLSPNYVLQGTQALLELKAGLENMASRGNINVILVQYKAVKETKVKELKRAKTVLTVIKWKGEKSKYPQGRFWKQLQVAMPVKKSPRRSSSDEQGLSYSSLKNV


Tests used:
[1] = biological target: T1, hu-M-IL1RAP construct, positions …; experiment: ELISA, hybridoma supernatant
Experimental: (§1) After removing the coating solution, unspecific binding was blocked by adding 200 μL of assay/blocking solution containing 1% bovine serum albumin (BSA) in phosphate buffered saline (PBS) pH 7.4 (ELISA diluent) and incubation at room temperature for one hour with agitation or overnight at 4° C. without agitation. Plates were then washed three times with 300 μL of PBS, 0.05% TWEEN®-20 (wash buffer). 100 μL of culture supernatant from individual hybridoma clones (or purified antibodies at the indicated concentration) was added to individual wells followed by incubation at room temperature for one hour with agitation. […] The plate was incubated at room temperature for one hour with agitation, washed six times with wash buffer and developed for 3-10 minutes by adding 50 μL/well of tetramethylbenzidine (TMB) microwell peroxidase substrate (Scytek Laboratories, Inc., Logan, UT, USA; catalogue number TM1999).

[2] = biological target: T2, mu-M-IL1RAP construct, positions …; experiment: ELISA, purified mAb
Experimental: as §1

[3] = biological target: T3, hu-S-IL1RAP construct, positions …; experiment: ELISA, purified mAb
Experimental: as §1

[4] = biological target: T1, hu-M-IL1RAP construct, positions …; experiment: ELISA, purified mAb
Experimental: as §1

[5] = biological target: T4, cyno-M-IL1RAP construct, positions …; experiment: ELISA, purified mAb
Experimental: as §1

[6] = biological target: T1, hu-M-IL1RAP construct, positions …; experiment: ELISA, mAb at 10 nM
Experimental: as §1
(§2) Binding domain mapping: Binding domain mapping of the 15 purified antibodies was carried out using the above-described ELISA assay with the following IL1RAP polypeptide constructs coated at 1 μg/ml on the assay plates: hu-M-IL1RAP, hu-M-IL1RAP-D1, hu-M-IL1RAP-D1D2, and hu-M-IL1RAP-D3.

[7] = biological target: T5, hu-M-IL1RAP-D1D2 construct, positions …; experiment: ELISA, mAb at 10 nM
Experimental: as §1, §2

[8] = biological target: T6, human IL1RAP (hu-IL1RAP) on human cells; experiment: cell-based or functional assay
[9] = biological target: T6, human IL1RAP (hu-IL1RAP) on human cells; experiment: cell-based or functional assay; remark: listed apart in the source
[10] = biological target: T6, human IL1RAP (hu-IL1RAP) on human cells; experiment: cell-based or functional assay; remark: listed apart in the source
[11] = biological target: T1, hu-M-IL1RAP construct, positions …; experiment: SPR, Fab analyte, 25 C
Experimental: (§3) Surface plasmon resonance (SPR) analysis was used to determine binding affinity for hu-M-IL1RAP of the purified Fabs containing the selected single, double, and triple mutations in either the VL or VH regions using a BIACORE™ 8K instrument. […] For kinetics measurements, 5 nM biotinylated hu-M-IL1RAP was captured at 10 μL/min to achieve ˜50 response units in the second flow cell (FC2). FC1 was kept as a reference. […] The sensorgrams were recorded and subjected to reference and buffer subtraction before data analysis with the BIACORE® 8K Evaluation Software (version 1.1.1.7442). Association rates (kₒₙ) and dissociation rates (koff) were calculated using a simple one-to-one Langmuir binding model. The equilibrium dissociation constant (KD) was calculated as the ratio of koff/kₒₙ.

[12] = biological target: T1, hu-M-IL1RAP construct, positions …; experiment: SPR, Fab analyte
Experimental: as §3

[13] = biological target: T1, hu-M-IL1RAP construct, positions …; experiment: SPR, Fab analyte, 37 C

A450 [1]	EC50 [3]	EC50 [4]	EC50 [5]	A450 [6]	A450 [7]	HEK-Blue, IL-1β, % inhibition at 100 nM [8]	HEK-Blue, IL-33, % inhibition at 100 nM [8]	HEK-Blue SEAP, IL-1β, % inhibition (supernatant) [9]	HEK-Blue SEAP, IL-33, % inhibition (supernatant) [9]	Binder	binding result [2]	further results
1.05 A450	0.036 nM	0.039 nM	0.043 nM	1.14 A450	0.957 A450	86%	46%	40%	18%	9D5 (purified mAb from hybridoma 9D5) (antibody, V domains shown, Mouse hybridoma mAb) VH: QVQLQQSGAELARPGASVKFSCKASGYTFTSYWMQWVKQRPGQGLEWIGTIYPGDGNTRYTQKFKGKATLTADKSSSTAYMQLSGLASEDSAVYYCARGYFGNLVFDVWGAGTTVTVSS VL: DIKMTQSPSSMYASLGERVTITCKASQDINTYLSWFLQKPGKSPKTLIYRADRLVDGVPSRFSGGGSGQDYSLTISSLEYEDLGIYYCLQYDEFPYTFGSGTKLEIK	no binding (tested: 20 nM (highest tested))	–
–	–	–	–	–	–	–	–	–	–	K13 Fab (VL A51Y/W92I) (Fab, V domains shown, Fab with 8xHis tag) VH: EVQLVESGGGLVQPGGSLRLSCAASGFTFSNYAMSWVRQAPGKGLEWVATVTEGGDYNYYLDDVKGRFTISRDNAKNSLYLQMNSLRAEDTAVYYCARDRWPYFFDYWGQGTLVTVSS VL: DIQMTQSPSSLSASVGDRVTITCRASENIYSNLAWYQQKPGKSPKLLVYGYKNLADGVPSRFSGSGSGTDYTLTISSLQPEDFATYYCQHFITTPRTFGGGTKVEIK	–	HEK-Blue, IL-1β, % inhibition at 100 nM (Fab) [10]: 100%; HEK-Blue, IL-1β, IC50 (Fab) [10]: 940 pM; HEK-Blue, IL-33, % inhibition at 100 nM (Fab) [10]: 98%; HEK-Blue, IL-33, IC50 (Fab) [10]: 3.17 nM; HEK-Blue, IL-36α, % inhibition at 100 nM (Fab) [10]: 100%; HEK-Blue, IL-36α, IC50 (Fab) [10]: 884 pM; Kd [11]: 7.09 pM; koff [11]: 4.36e-05 s⁻¹; kon [11]: 6.15e+06 M⁻¹ s⁻¹; fold improvement of affinity over the parental Fab [12]: 9 fold; Kd [13]: 0.0293 nM; koff [13]: 0.000117 s⁻¹; kon [13]: 4.01e+06 M⁻¹ s⁻¹
0.987 A450	0.186 nM	0.262 nM	0.257 nM	1.09 A450	0.602 A450	64%	27%	45%	26%	8H1 (purified mAb from hybridoma 8H1) (antibody, V domains shown, Mouse hybridoma mAb) VH: QVQLQQSGPELVKSGASVRISCKASGYAFSGSWMNWVKQRPGKGLEWIGRIYPGDGNTNYNGKFKDKATLTADKSSSTAFMQLSSLTSEDSAVYFCARDYYLFYFDYWGQGTTLTVSS VL: NIVMTQTPKFLPVAAEDRVIITCKASQDVSNEVAWYQQKPGQSPKLLMYYASNRYTGVPDRFTGSGSGTDFTFTISSVQVEDLAVYFCQQHYSSPLTFGAGTKLELK	no binding (tested: 20 nM (highest tested))	–
